Test: yeast display, Sf9 membrane polyspecificity reagent, FACS + sequencing; frameworks hold sequencing errors
Procedure, shortened: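 Nanobodies from a synthetic yeast display library (Saccharomyces cerevisiae BJ5465), induced 36–48 hours with galactose, were stained 1 hour at 4 °C with 10% biotinylated, detergent-solubilized Sf9 membrane reagent, enriched on streptavidin microbeads, then FACS-sorted. Anti-HA (expression) and streptavidin (reagent binding) fluorescence set low and high (top ~1%) gates. Polyreactivity labels come from the gate of origin. Genes were colony-PCR amplified, MiSeq 2 × 250 sequenced and filtered by CDR length.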

| Sequence | polyreactivity (PSR sort gate) |
| --- | --- |
| QVQLVESGGGLVQAGGSLRLSCAASGSIFRSYAMGWYRQAPGKERELVAAISRGGSTTYADSVKGRFTISRDNAKNTVYLQMNSLKPEDTAVYYCAVANVYYEGYDYWGQGTQVTVSS | low polyreactivity |
| QVQLQESGGGLVQAGGSLRLSCAASGSIFDSTFMGWYRQAPGKERELVAGISYGTITYYADSVKGRFTISRDNAKHRVSAEEQPESGRYRGVLLRGYPAGQLFLACWGQGTQVTESS | high polyreactivity |
| QVQLVESWGGLVQAGGSLRLSCAASGRIFKYNAMGWYRQAPGKERELVAAISGGGSTNYADSVKGRFTISRDNAKNTVYLQMNSLKPEDTAVYYCAASDPFEASQYKYDYWGQGTQVTVSS | low polyreactivity |
| QVQLVESGGGLVQAGGSLRLSCAASGRIFVLYAMGWYRQAPGKERELVAAINWSGGSTFYADSVKGRFTISRDNAKNTVYLQMNSLKPEDTAVYYCAADPYFWSALRIGQNDYWGQGTQVTVSS | high polyreactivity |
| QVQLVESGGGLVQAGGSLRLSCADSGSIFVWNDMGWYRQAPGKEREFVAAITSRDGSTYYADSVKGRFTISRDTAKNTVYLQMTSLKPEDTAVYYCAARLRVTGFYSRTRYYWGQGTQVTVAS | low polyreactivity |
| QVQLVESGGGLVQAGGSLRLSFAASGFTFKYYAMGWYRPAPGKERELVAAIRSGGSTYYADSVKGRFTISRDNAKNTVYLQMNSLKPEDTAVYYCNAPAFYRYGLNYWGQGTQVTVSS | high polyreactivity |
| QVQLVESGGGLVQAGGSLRLSCAASGRTFKGNAMGWYRQAPGKEIELVAAISKSGGRTYYADSVKGRFTISRDNAKNTVYLQMNSLKPEDTAVYYCAVDVGPTKVRFGYLGQGTQVTVSS | high polyreactivity |
| QVQHVESGGGLVQAGGSLRLSCAASGSTFYLYAMGWYRQAPGTERELLAAITYSGDRTRYADSVKGRFTISRDNAKNTVYLQMNSLKPEDTAVYYCAAPYVGARNAYRMCYWGQGTQVTVSS | high polyreactivity |
| QVQLVESGGGLVQAGGSLRLSCAASGSTFSTYAMGWYRQAPGKERELVAAIRWSGGSTYYADSVKGRFTISRDNAKNTVYLQMNSLKPEDTAVYYCAKGIRRWYGGSDYWGQGTQVTVSS | low polyreactivity |
| QVQLVESGGGLVQAGGSLRLSCAASGSIFWYNAMGWYRQAPGKESELVAAISWDGGSTYYADSVKGRFTISRDNAKNTVYLQMNSLKPEDTAVYYCNRVYIVWYTRYVVSGWYDYWGQGTEVTVSS | high polyreactivity |
| QVQLVESGRGLVQAGGSLRLSCAASGRIFLANAMGWSRQAPGKERELVAAISLSGGRTYYADSVKGRFTISRDIAKNTVYLQMNSLKPEDTAFYYCAAEFYPIGYYGGYDYWGPGTQVTVSS | low polyreactivity |
| QVQLVESGGGLVQAGGSLRLSCAASGITFDQNAMGWYRQAPGKEREFVAAISVSGGRTYYADSVKGRFTISRDNAKNTVYLQMNSLKPEDTAVYYCAAYGGTRYYYSYYYWGQGTQVTVSS | high polyreactivity |
| QVHLVESGGGLVQAGGSLRLSCAASGFNFLIYAMGWYRQAPGKERELVAAITLRGSGTYYADSVKGRFTISRDNAKNTVYLQMNSLKPEDTAVYDCAAGTARRTYDYWGQGTQVTVSS | low polyreactivity |
| QVQLVESGGGLVQAGGSLRLSCAASGFTFYSNDMGWYRQAPGKERELVAAISYSGGSTYYADSVKGRFTISRDNAKNTVYLQMKRLNPEDTAVYYCAAGGLQQGDYWGQGTQVTVSS | low polyreactivity |
| QVQHVESGAGLVQAGGSLRLSCAASGNTINFYAMGWYRQPPGKESELVASITSGGGTNYADSVKGRFTISRDNAKNTVYLQMNSLKPEDTAVYYCAAQFYDHFRYHFDWGQGTQVTVSS | low polyreactivity |
| QVQLVESGGGLVQAGGSLRLSCAASGRTFYYNAMGWYRQAPGKEMELVAVITRGSTYYADSVKGRFTISRDNAKNTVYLQMNSLKPEDTAVYYCAKYRHYHRGYDYWGQGTQVTVSS | high polyreactivity |

| Sequence | polyreactivity (PSR sort gate) |
| --- | --- |
| QVQLVESGGGLVQAGGSLRLSCAASGRTFGTYAMGWYRQAPGKERELVAAINFSGGNTYYADSVKGLFTITRDNAKNTVYLQMNSLKPEDTAVYYCAKRGHSYSLDLYYIVTYDYWGQGTQVTVSS | low polyreactivity |
| QVQLVESGGGLVQAGGSLRLSCAASGRIFTLYTMGWYRQAPGKERELVARITRSGGTTYYADSVKGRFTISRDNSKNTVYLQMNSLKPEDTAVYYCNVDDYFWPGAKFDYWGQGTQVTVSS | low polyreactivity |
| QVQHVESGGGLVQAGGSLRLSCAASGIIFRENALGWDRQAPGKERELVAGISSGGNTNYADSGKGRFTISRDNAKNPVYLQMNSLNPEDTAVYYCNTDWYLPRYVLLGYFSGTEDYWGQGTQVTLSS | low polyreactivity |
| QVQLVESGGGLVQAGGSLRLSCAASGITLNRNAMGWYRQAPGKERELVSRISRRGGTTYYADSVKGRFTISRDNAKNTVYLLMNSLKPEDTAVYYCNAGPYGGNPFDYSGQGTQVTVSS | high polyreactivity |
| QVQLVESGGGLVQAGGSLRLSCAASGSIFVSYAMGWYRQAPGKERELVAAITRGGSTNYADSVKGRFTISRDNAKNTVYLQMNSLKPEDTAVYYCAAAYRRGGPPLDYWGQGTQVTVSS | low polyreactivity |
| QVQLVESGGGLVQAGGSLRISCAASGITFRRYGMGWYRQAPGKERELVATITSSVGSRTYYADSVKGRFTISRDNAKNTVYLQMNSLKPEDTAVYYCAADHRVYDSEYWGQGTQVTVSS | low polyreactivity |
| QVQLVESGGGLVQAGGSLRLSCAASGRIFDWYAMGWYRQAPGKERELVAAITTSADRTYYADSVKGRFTISRDNAKNTVYLQMNSMKPEDTAVYYCNADAFGGYDEYDYWGQGTQVTVSS | low polyreactivity |
| QVQLVESGGGLVQAGGSLRLSCAASGGIFFPNAMGWYRQAPGKERELVAAISWSAGSTYYADSVKGRFTISRDHAKNTVDLQMNSLKPEDTAVYYCPAAGSNYTVWYGYYYWGQGTQVTVSS | low polyreactivity |
| QVQLVESGGGLVQAGGSLRLSCAASGITFVQNVMGWYRQAPGKEREFVAGINNSGGSTYYADSVKGRFTISRDNAKNTVYLQMNSLKPEDTAVYYCAAVYDRYTYAFVYRYRRMYYWGQGTQVTVSS | low polyreactivity |
| QVQLVESGGGLVQAGGSLRLSCAASGRIFDWYAMGWYRQAPGKERELVAAISTSGANTYYADSVKGRITISRDNAKNTVYLQMNSLKPEDSGVYYCATDPYQPYEGDYWGQGTQVTVSS | low polyreactivity |
| QVQLVESGGGLVQAGGSLRLSCAASGFTFGSYAMGWYRQAPGKERELVAAITASGGSTYYADSVKGRFTISRDNPKNTVYLQMNSLKPEDTAVYYCNKRWTYKWDDYWGQGTQVTVSS | high polyreactivity |
| QVQLVESGGGLVQAGGSLRLSCAASGSIFRSYAMGWYRQAPGKEREFVAAISNGGRTSYADSVKGRFTISRDNAKYNVYLQMNSLKPEDTAVYDCNARYSRRAMGYWGQGTQVTVSS | high polyreactivity |
| QVQLVESGGGLVQAGGSLRLICAASGLIFYDNMGWYRQAPGKERELVAAISSSGGSTSYADSVKGRFTISRDNAKNTVYLQMNSLKPEDTAVYYCAADSYPAYLGFVGFDYWGQGTQVTVSS | low polyreactivity |
| QVQLVESGGGLVQAGGSLRLICAASGLIFVRYAMGWYRQAPGKERELVATITWSGGTTYADSVKGRFTISRDNAKNTVYLQMNSLNPEDTAVYYCAVEWPAWTDSDYPVGGHAFGYWGQGTQVTVSS | low polyreactivity |
| QVQLVESGGGLVQAGGSLRLSCAASVFIFDTYTMGWYRQAPGKERELVAAITGSGVNTYYADSVKGRFTISRDNAKNTVYLQMNSLKPEDTAVYYCAARRKNRRDYDYYYWGQGTQVTVSS | high polyreactivity |
| QVQHVESGGGLVQAGGSLRLSCAASGRILIRNAMGWYRQAPGKERELVAAINRGGGSTYYADSVKGRFTISRDNAKNTVYLQMNSLKPEDTAVYYCAADRKAGYSRVDGDYWGQGTQVTVSS | low polyreactivity |
